Measured values: patent US7754689B2, “Finger-1 peptide analogs of the TGF-β superfamily” (Wyeth LLC, priority 2006, dated 2010)
Values joined by “and” are separate entries in the source; they are usually repeats but may differ in a detail not shown here. Equal entries are not always repeated.

Experiment: BMP solubility screen: A320 turbidity of BMP-12 solutions
Assay type: physicochemical
Details: 50 mM Tris pH 8, 0.5 mg/mL BMP-12
Procedure: BMP Solubility Screen—A Tecan liquid-handling robot was used to mix a master plate of reagents, 800 μL×1.25 concentration (for each solution; see Tables 2 and 3), each in 50 mM Tris buffer at pH 8. An eight-channel pipettor was used to transfer 80 μL of material from the master plate into a half-area UV microplate, from which A320 was read from each sample to define a blank. A repeat-pipettor was used to add 20 μL of 2.5 mg/mL BMP-12 in 0.1% TFA to make a 0.5 mg/mL solution, which was then agitated at 14000 rpm. The UV absorption (A320) was read and the blank absorption subtracted to determine solubility. The procedure was repeated with a wider range of 2-methyl-2,4-pentanediol (MPD) concentrations and a finer set of salt concentrations (Table 4).

B1: BMP-12: Bone Morphogenic Protein, member of the TGF-β superfamily; tested in solution and immobilized on Sepharose beads as affinity ligand (protein)
chain: TALAGTRTAQGSGGGAGRGHGRRGRSRCSRKPLHVDFKELGWDDWIIAPLDYEAYHCEGLCDFPLRSHLEPTNHAIIQTLLNSMAPDAAPASCCVPARLSPISILYIDAANNVVYKQYEDMVVEACGCR
A320 minus blank (turbidity) (NaCl 0 M, 1-propanol 0%): 1.724 | A320 minus blank (turbidity) (NaCl 0 M, 1-propanol 2.5%): 1.848 | A320 minus blank (turbidity) (NaCl 0 M, 1-propanol 5%): 2.134 | A320 minus blank (turbidity) (NaCl 0 M, 1-propanol 10%): 2.000 | A320 minus blank (turbidity) (NaCl 0 M, 1-propanol 15%): 3.172 | A320 minus blank (turbidity) (NaCl 0 M, 1-propanol 25%): 1.419 | A320 minus blank (turbidity) (NaCl 0 M, 2-methyl-2,4-pentanediol 2.5%): 1.936 | A320 minus blank (turbidity) (NaCl 0 M, 2-methyl-2,4-pentanediol 5%): 2.122 | A320 minus blank (turbidity) (NaCl 0 M, 2-methyl-2,4-pentanediol 10%): 2.148 | A320 minus blank (turbidity) (NaCl 0 M, 2-methyl-2,4-pentanediol 15%): 2.035 | A320 minus blank (turbidity) (NaCl 0 M, 2-methyl-2,4-pentanediol 20%): 2.136 | A320 minus blank (turbidity) (NaCl 0 M, 2-methyl-2,4-pentanediol 25%): 2.631 | A320 minus blank (turbidity) (NaCl 0.00 M, 2-methyl-2,4-pentanediol 30%): 3.443 | A320 minus blank (turbidity) (NaCl 0.00 M, 2-methyl-2,4-pentanediol 35%): 3.006 | A320 minus blank (turbidity) (NaCl 0.00 M, 2-methyl-2,4-pentanediol 40%): 3.519 | A320 minus blank (turbidity) (NaCl 0.00 M, 2-methyl-2,4-pentanediol 45%): 3.308 | A320 minus blank (turbidity) (NaCl 0.05 M, 2-methyl-2,4-pentanediol 25%): 1.994 | A320 minus blank (turbidity) (NaCl 0.05 M, 2-methyl-2,4-pentanediol 30%): 0.979 | A320 minus blank (turbidity) (NaCl 0.05 M, 2-methyl-2,4-pentanediol 35%): 0.376 | A320 minus blank (turbidity) (NaCl 0.05 M, 2-methyl-2,4-pentanediol 40%): 0.330 | A320 minus blank (turbidity) (NaCl 0.05 M, 2-methyl-2,4-pentanediol 45%): 0.318 | A320 minus blank (turbidity) (NaCl 0.1 M, 1-propanol 0%): 1.745 | A320 minus blank (turbidity) (NaCl 0.1 M, 1-propanol 2.5%): 2.135 | A320 minus blank (turbidity) (NaCl 0.1 M, 1-propanol 5%): 2.212 | A320 minus blank (turbidity) (NaCl 0.1 M, 1-propanol 10%): 1.945 | A320 minus blank (turbidity) (NaCl 0.1 M, 1-propanol 15%): 3.199 | A320 minus blank (turbidity) (NaCl 0.1 M, 1-propanol 25%): 0.104 | A320 minus blank (turbidity) (NaCl 0.1 M, 2-methyl-2,4-pentanediol 2.5%): 1.900 | A320 minus blank (turbidity) (NaCl 0.1 M, 2-methyl-2,4-pentanediol 5%): 2.338 | A320 minus blank (turbidity) (NaCl 0.1 M, 2-methyl-2,4-pentanediol 10%): 2.341 | A320 minus blank (turbidity) (NaCl 0.1 M, 2-methyl-2,4-pentanediol 15%): 2.287 | A320 minus blank (turbidity) (NaCl 0.1 M, 2-methyl-2,4-pentanediol 20%): 2.573 | A320 minus blank (turbidity) (NaCl 0.1 M, 2-methyl-2,4-pentanediol 25%): 0.715 and 0.626 | A320 minus blank (turbidity) (NaCl 0.10 M, 2-methyl-2,4-pentanediol 30%): 0.206 | A320 minus blank (turbidity) (NaCl 0.10 M, 2-methyl-2,4-pentanediol 35%): 0.150 | A320 minus blank (turbidity) (NaCl 0.10 M, 2-methyl-2,4-pentanediol 40%): 0.083 | A320 minus blank (turbidity) (NaCl 0.10 M, 2-methyl-2,4-pentanediol 45%): 0.087 | A320 minus blank (turbidity) (NaCl 0.25 M, 1-propanol 0%): 1.804 | A320 minus blank (turbidity) (NaCl 0.25 M, 1-propanol 2.5%): 2.397 | A320 minus blank (turbidity) (NaCl 0.25 M, 1-propanol 5%): 2.300 | A320 minus blank (turbidity) (NaCl 0.25 M, 1-propanol 10%): 2.105 | A320 minus blank (turbidity) (NaCl 0.25 M, 1-propanol 15%): 1.392 | A320 minus blank (turbidity) (NaCl 0.25 M, 1-propanol 25%): 0.022 | A320 minus blank (turbidity) (NaCl 0.25 M, 2-methyl-2,4-pentanediol 2.5%): 2.061 | A320 minus blank (turbidity) (NaCl 0.25 M, 2-methyl-2,4-pentanediol 5%): 2.399 | A320 minus blank (turbidity) (NaCl 0.25 M, 2-methyl-2,4-pentanediol 10%): 2.434 | A320 minus blank (turbidity) (NaCl 0.25 M, 2-methyl-2,4-pentanediol 15%): 2.433 | A320 minus blank (turbidity) (NaCl 0.25 M, 2-methyl-2,4-pentanediol 20%): 1.006 | A320 minus blank (turbidity) (NaCl 0.25 M, 2-methyl-2,4-pentanediol 30%): −0.015 | A320 minus blank (turbidity) (NaCl 0.25 M, 2-methyl-2,4-pentanediol 35%): −0.065 | A320 minus blank (turbidity) (NaCl 0.25 M, 2-methyl-2,4-pentanediol 40%): 0.015 | A320 minus blank (turbidity) (NaCl 0.25 M, 2-methyl-2,4-pentanediol 45%): −0.012 | A320 minus blank (turbidity) (NaCl 0.5 M, 1-propanol 0%): 1.953 | A320 minus blank (turbidity) (NaCl 0.5 M, 1-propanol 2.5%): 2.170 | A320 minus blank (turbidity) (NaCl 0.5 M, 1-propanol 5%): 1.629 | A320 minus blank (turbidity) (NaCl 0.5 M, 1-propanol 10%): 1.313 | A320 minus blank (turbidity) (NaCl 0.5 M, 1-propanol 15%): 0.305 | A320 minus blank (turbidity) (NaCl 0.5 M, 1-propanol 25%): −0.001 | A320 minus blank (turbidity) (NaCl 0.5 M, 2-methyl-2,4-pentanediol 2.5%): 2.045 | A320 minus blank (turbidity) (NaCl 0.5 M, 2-methyl-2,4-pentanediol 5%): 2.414 | A320 minus blank (turbidity) (NaCl 0.5 M, 2-methyl-2,4-pentanediol 10%): 2.258 | A320 minus blank (turbidity) (NaCl 0.5 M, 2-methyl-2,4-pentanediol 15%): 1.420 | A320 minus blank (turbidity) (NaCl 0.5 M, 2-methyl-2,4-pentanediol 20%): 0.165 | A320 minus blank (turbidity) (NaCl 0.5 M, 2-methyl-2,4-pentanediol 25%): 0.020 and 0.038 | A320 minus blank (turbidity) (NaCl 0.50 M, 2-methyl-2,4-pentanediol 30%): −0.091 | A320 minus blank (turbidity) (NaCl 0.50 M, 2-methyl-2,4-pentanediol 35%): 0.026 | A320 minus blank (turbidity) (NaCl 0.50 M, 2-methyl-2,4-pentanediol 40%): 0.024 | A320 minus blank (turbidity) (NaCl 0.50 M, 2-methyl-2,4-pentanediol 45%): −0.008 | A320 minus blank (turbidity) (NaCl 0.75 M, 1-propanol 0%): 1.911 | A320 minus blank (turbidity) (NaCl 0.75 M, 1-propanol 2.5%): 2.023 | A320 minus blank (turbidity) (NaCl 0.75 M, 1-propanol 5%): 1.541 | A320 minus blank (turbidity) (NaCl 0.75 M, 1-propanol 10%): 1.032 | A320 minus blank (turbidity) (NaCl 0.75 M, 1-propanol 15%): 0.094 | A320 minus blank (turbidity) (NaCl 0.75 M, 1-propanol 25%): −0.003 | A320 minus blank (turbidity) (NaCl 0.75 M, 2-methyl-2,4-pentanediol 2.5%): 1.985 | A320 minus blank (turbidity) (NaCl 0.75 M, 2-methyl-2,4-pentanediol 5%): 2.076 | A320 minus blank (turbidity) (NaCl 0.75 M, 2-methyl-2,4-pentanediol 10%): 2.211 | A320 minus blank (turbidity) (NaCl 0.75 M, 2-methyl-2,4-pentanediol 15%): 0.818 | A320 minus blank (turbidity) (NaCl 0.75 M, 2-methyl-2,4-pentanediol 20%): 0.099 | A320 minus blank (turbidity) (NaCl 0.75 M, 2-methyl-2,4-pentanediol 25%): 0.001 | A320 minus blank (turbidity) (NaCl 1 M, 1-propanol 0%): 1.988 | A320 minus blank (turbidity) (NaCl 1 M, 1-propanol 2.5%): 1.601 | A320 minus blank (turbidity) (NaCl 1 M, 1-propanol 5%): 1.817 | A320 minus blank (turbidity) (NaCl 1 M, 1-propanol 10%): 1.000 | A320 minus blank (turbidity) (NaCl 1 M, 1-propanol 15%): 0.040 | A320 minus blank (turbidity) (NaCl 1 M, 1-propanol 25%): −0.010 | A320 minus blank (turbidity) (NaCl 1 M, 2-methyl-2,4-pentanediol 2.5%): 2.133 | A320 minus blank (turbidity) (NaCl 1 M, 2-methyl-2,4-pentanediol 5%): 1.903 | A320 minus blank (turbidity) (NaCl 1 M, 2-methyl-2,4-pentanediol 10%): 2.110 | A320 minus blank (turbidity) (NaCl 1 M, 2-methyl-2,4-pentanediol 15%): 0.400 | A320 minus blank (turbidity) (NaCl 1 M, 2-methyl-2,4-pentanediol 20%): 0.089 | A320 minus blank (turbidity) (NaCl 1 M, 2-methyl-2,4-pentanediol 25%): −0.015 | A320 minus blank (turbidity) (NaCl 1.25 M, 1-propanol 0%): 1.702 | A320 minus blank (turbidity) (NaCl 1.25 M, 1-propanol 2.5%): 1.376 | A320 minus blank (turbidity) (NaCl 1.25 M, 1-propanol 5%): 1.643 | A320 minus blank (turbidity) (NaCl 1.25 M, 1-propanol 10%): 1.018 | A320 minus blank (turbidity) (NaCl 1.25 M, 1-propanol 15%): 0.033 | A320 minus blank (turbidity) (NaCl 1.25 M, 1-propanol 25%): 0.022 | A320 minus blank (turbidity) (NaCl 1.25 M, 2-methyl-2,4-pentanediol 2.5%): 1.819 | A320 minus blank (turbidity) (NaCl 1.25 M, 2-methyl-2,4-pentanediol 5%): 1.643 | A320 minus blank (turbidity) (NaCl 1.25 M, 2-methyl-2,4-pentanediol 10%): 1.688 | A320 minus blank (turbidity) (NaCl 1.25 M, 2-methyl-2,4-pentanediol 15%): 0.257 | A320 minus blank (turbidity) (NaCl 1.25 M, 2-methyl-2,4-pentanediol 20%): 0.040 | A320 minus blank (turbidity) (NaCl 1.25 M, 2-methyl-2,4-pentanediol 25%): −0.011 | A320 minus blank (turbidity) (NaCl 1.5 M, 1-propanol 0%): 1.981 | A320 minus blank (turbidity) (NaCl 1.5 M, 1-propanol 2.5%): 1.358 | A320 minus blank (turbidity) (NaCl 1.5 M, 1-propanol 5%): 1.598 | A320 minus blank (turbidity) (NaCl 1.5 M, 1-propanol 10%): 0.973 | A320 minus blank (turbidity) (NaCl 1.5 M, 1-propanol 15%): 0.036 | A320 minus blank (turbidity) (NaCl 1.5 M, 1-propanol 25%): 0.478 | A320 minus blank (turbidity) (NaCl 1.5 M, 2-methyl-2,4-pentanediol 2.5%): 1.767 | A320 minus blank (turbidity) (NaCl 1.5 M, 2-methyl-2,4-pentanediol 5%): 1.521 | A320 minus blank (turbidity) (NaCl 1.5 M, 2-methyl-2,4-pentanediol 10%): 1.798 | A320 minus blank (turbidity) (NaCl 1.5 M, 2-methyl-2,4-pentanediol 15%): 0.227 | A320 minus blank (turbidity) (NaCl 1.5 M, 2-methyl-2,4-pentanediol 20%): 0.045 | A320 minus blank (turbidity) (NaCl 1.5 M, 2-methyl-2,4-pentanediol 25%): 0.003
